Data from patent US20250188153A1.

B1: MPV467 Fab (Fab, V domains shown)
VH: EVQLVESGGGVVRPGTSLRVSCAAFDFNFRDYGMHWVRQAPGKGLEWVAGIWYDGSNKDYADSVKGRFTISRDNSQNTLYLQMNSLRVEDTAVYYCARDPRTHREGALSHFDSWGQGTLVTVSS
VL: PNELTQDPAVSVALGQTVRITCQGDSLRNYFAGWYQQKPGQAPLLVLYGENIRPSGIPDRFSGSSSGNTVSLTITGAQAEDEADYYCNSRDNSGNHWVFGGGTRLTVL
B2: MPV486 (antibody, V domains shown)
VH: EVQLVESGGHLVQSGGSLRLSCAASGFTFSNYILNWVRQAPGKGLEWISYITGGSSAIYYADSVKGRFTISRDDAKNSLYLQMNNLRAEDTAVYYCARSHGYDSSGYYYYFAMDVWGQGTTVTVSS
VL: QSVLTQPPSASGTPGQRVTISCSGSNSNIESNTVNWYQQIPGTAPKLLIYSDNRRPSGVPDRFSGSKSGTSASLAISGLQSEDEADYYCAAWDDSLIGYVFGTGTKVTV
B3: MPV467 (antibody, V domains shown)
VH: B1 VH
VL: B1 VL
B4: MPV485 (antibody, V domains shown)
V domain 1: EVQLQEPGPGLVKPSETLSLTCTVSGGSISSTNSFWGWVRQPPGKGLEWIGSIYYSGTTYYNSSLKSRVTISVDTSKNQFSLRLSSVTAADTAVYYCARQGLTSSWYDGSGLDVWG
V domain 2: SYELTQPPSVSVSPGQTASITCSGDKLGNKYACWYQQRPGQSPVLVIYQDTKRPSGIPERFSGSNSGNTATLTISGTQAMDEADYYCQAWDSNTVVFGGGTKLTVL
B5: MPV454 (antibody, V domains shown)
VH: EVQLVESGGGLVKPGGSLRLSCSTSGFVFSSYAMHWVRQAPGKGLEHVSAISSTGDNTHYADSVKGRFTISRDNSRGRLYLQMTSVRPEDAALYYCVKDLYSGRFYYFLDDWGQGTRIIVSS
VL: DIQVTQSPSSLSASVGDRVTISCRASQNISNYLNWFQQRPGKAPKLLIYVASTLQSGAPSRFSGSGSGTDFTLTITDLQPEDFATYYCQQSYNTPPITFGQGTRLEIK
B6: MPV456 (antibody, V domains shown)
VH: QVQLQESGPGVVKPSGTLSLTCGVSGGSISSSYWWSWVRQPPGKGLEWIGEIYHSGSTNYNPSLKRRVTISVDKSKNQFSLKVTSVTAADTAVYYCARGPIQYYDILTEERVGYCDYWGQGTLVTVSS
VL: TLSASVGDRVTITCRASQSISSWLAWFQQKPGKAPKLLIYKTSSLESGVPSRFSGSGSGTEFTLTISSLQPDDFATYYCQEYNSYSRTFGQGTKVEIK
B7: MPV481 (antibody, V domains shown)
VH: EVQLVQSGGGLVKPGGSLRLSCAASGLPFNNAWMNWVRQAPGKGLEWVGRIKSKIDGGTTEYAAPVKGRFTISRDDSENTLYLQMNSLRTEDTAVYYCTTEYYALLSGNYSDCWGQGTLVTVSS
VL: DIVMTQSPFSLSLSPGERATLSCRASQSIKRAYLGWYQQKPGQAPRLLIYGASNRATGIPDRFSGSGSGTDFTLTISRLEPEDFAVYYCQQYGDSPGGSFGQGTKLEIR
B8: MPV477 (antibody, V domains shown)
VH: EVQLVQSGAEVKKPGASVEVSCKTSGYTFTDYYLHWVRQAPGQGLEWMGWINPRSGGTKYGQKFQGRVTMTRDTSISTAYMDLRGLRSDDTAVYYCARAPLLTVYAVAHRSGENRFDPWGQGTVTVSS
VL: QPPSLSGAPGQTVTISCTGSGSNIGAGYDVNWYQCLPGTAPKLLMFDNSNRPSGVPDRFSGSRSGASASLAITGLQAEDEADYYCQSYDSGLSGWVFGGGTKLTVL
B9: MPV464 (antibody, V domains shown)
VH: QVQLQESGPGLVKPSQTLSLTCTVSGGSVRGGGDYWSWIRRPPGKGLEWIGHIYNSGTTFYNPSLKSRVTISIDTSKNQFSLKLRSVTAADTAVYYCGRVGSRATGLPDWIDPWGQGTLVTVSS
VL: SYELTQPPSVSVSPGQTATITCSGTNLGAKYSCWYQQKPGQSPVLVIFQDNKRASGIPARFSASTSGDTATLTISGTQVMDEADYFCQAWDSRTAVFGGGTTLTVL
B10: MPV491 (antibody, V domains shown)
VH: QVQLQESGPGLVKSSQTLSLTCTVSGGSISSVTSHWTWIRQHPGKGLEWIGYIFSSGTTYYSPSLRSRLTMSVDTSKNQFSLQLSSVTAADTAMYYCARGIYCGDSCYKGTDYWGRGTLVTVSS
VL: IRLMTQTPVTLPVTPGEPASISCRSSQSLLHSNGYNYLDWYLQKPGQSPQLLIYRGSTRASGVPDRFSGSGSGTEFTLKISRVEAEDVGVYYCMQGLQTPYTFGQGTKLESR
B11: MPV478 (antibody, V domains shown)
VH: EVQLVQSGAEVKKPGASVKVSCNASGYTFTGYYIHWVRQAPGQGLEWMGWINPRSGGTNYAQKFQGRVTLTRDTSITTAYMDVTRLRPDDTAVYYCATTREGIVLMPRGRGDDALDTWGQGTTVIVSS
VL: DIVMTQSPVSLTVSLGERATINCKSSQSVLSTSNNENYLAWYQQKPGQPPNLLIYWASTRESGVPDRFSGSGSGTDFTLTISSLQAEDVAVYYCQQYFATPITFGPGTKVDVK
B12: MPV483 (antibody, V domains shown)
VH: EVQLVQSGAELKKPGSSVKVSCKASGDTFSNYAISWVRQAPGQGLEWMGGIIPIYNTANYAQKFQGRVTLTADESTSTAYMELSSLRSEDTAVYYCARDVRNNWSVLRGARYYYYGMDVWGQGTTVTVSS
VL: DIVMTQTPFSLSASVGDRVTVTCRASQDISNSLAWFQQKPGKAPKSLIYAASSLQSGVPTRFSGGGSGTDFTLTISSLQPEDFATFYCLQYDSFPPTFGGGTKVEI

Target: DS-CavEs2-IPDS (human metapneumovirus)
Assay: cryo-EM structure

Row | Binder | buried surface area on hMPV F (heavy chain) | buried surface area on hMPV F (light chain)
1 | B1 | 567 Å^2 | 322 Å^2

Target: hMPV A1 F (human metapneumovirus)
Assay: ELISA on coated recombinant protein, OD 405 nm

Row | Binder | EC50
2 | B2 | 0.053 µg/mL
3 | B3 | 0.38 µg/mL
4 | B4 | 0.11 µg/mL
5 | B5 | 0.49 µg/mL
6 | B6 | 1.4 µg/mL
7 | B7 | 0.31 µg/mL
8 | B8 | 0.083 µg/mL
9 | B9 | 0.28 µg/mL
10 | B10 | 1.5 µg/mL
11 | B11 | 0.059 µg/mL
12 | B12 | 0.12 µg/mL

Target: hMPV A1 F monomer (human metapneumovirus)
Assay: ELISA on coated recombinant protein, OD 405 nm

Row | Binder | EC50
13 | B2 | 0.088 µg/mL
14 | B3 | 0.053 µg/mL
15 | B4 | 0.24 µg/mL
16 | B5 | 0.052 µg/mL
17 | B6 | 3.5 µg/mL
18 | B7 | 0.17 µg/mL
19 | B8 | 0.049 µg/mL
20 | B9 | 0.067 µg/mL
21 | B10 | 1.3 µg/mL
22 | B11 | 0.012 µg/mL
23 | B12 | 0.16 µg/mL

Target: hMPV A1 F trimer (heated) (human metapneumovirus)
Assay: ELISA on coated recombinant protein, OD 405 nm

Row | Binder | EC50
24 | B2 | 0.22 µg/mL
25 | B3 | 0.26 µg/mL
26 | B4 | 0.32 µg/mL
27 | B5 | 0.14 µg/mL
28 | B6 | 1.8 µg/mL
29 | B7 | 0.28 µg/mL
30 | B8 | 0.087 µg/mL
31 | B9 | 0.24 µg/mL
32 | B10 | 1.1 µg/mL
33 | B11 | 0.024 µg/mL
34 | B12 | 0.27 µg/mL

Target: hMPV A2 F (human metapneumovirus)
Assay: ELISA on coated recombinant protein, OD 405 nm

Row | Binder | EC50
35 | B2 | 0.043 µg/mL
36 | B3 | 0.12 µg/mL
37 | B4 | 0.086 µg/mL
38 | B5 | 0.12 µg/mL
39 | B6 | 0.42 µg/mL
40 | B7 | 0.11 µg/mL
41 | B8 | 0.023 µg/mL
42 | B9 | 0.083 µg/mL
43 | B10 | 2.2 µg/mL
44 | B11 | 0.021 µg/mL
45 | B12 | 0.07 µg/mL

Target: hMPV B1 F (human metapneumovirus)
Assay: ELISA on coated recombinant protein, OD 405 nm

Row | Binder | EC50
46 | B2 | 0.1 µg/mL
47 | B3 | 0.12 µg/mL
48 | B4 | 0.078 µg/mL
49 | B5 | 0.12 µg/mL
50 | B6 | 0.49 µg/mL
51 | B8 | 0.02 µg/mL
52 | B9 | 0.086 µg/mL
53 | B10 | 2 µg/mL
54 | B11 | 0.022 µg/mL
55 | B12 | 0.12 µg/mL

Target: hMPV B2 F GCN4 (human metapneumovirus)
Assay: ELISA on coated recombinant protein, OD 405 nm

Row | Binder | EC50
56 | B2 | 0.1 µg/mL
57 | B3 | 0.061 µg/mL
58 | B4 | 0.16 µg/mL
59 | B5 | 0.068 µg/mL
60 | B6 | 0.69 µg/mL
61 | B7 | 0.11 µg/mL
62 | B8 | 0.037 µg/mL
63 | B9 | 0.12 µg/mL
64 | B10 | 0.5 µg/mL
65 | B11 | 0.02 µg/mL
66 | B12 | 0.14 µg/mL

Target: hMPV B2 F monomer (human metapneumovirus)
Assay: ELISA on coated recombinant protein, OD 405 nm

Row | Binder | EC50
67 | B2 | 0.11 µg/mL
68 | B3 | 0.06 µg/mL
69 | B4 | 0.18 µg/mL
70 | B5 | 0.046 µg/mL
71 | B7 | 0.2 µg/mL
72 | B8 | 0.21 µg/mL
73 | B9 | 0.098 µg/mL
74 | B10 | 0.48 µg/mL
75 | B11 | 0.02 µg/mL
76 | B12 | 0.13 µg/mL

Target: hMPV B2 F protein (his-tagged, not trypsin treated) (human metapneumovirus)
Assay: ELISA on coated recombinant protein, OD 405 nm

Row | Binder | EC50
77 | B2 | 0.23 µg/mL
78 | B3 | 0.37 µg/mL
79 | B4 | 0.18 µg/mL
80 | B5 | 5.2 µg/mL
81 | B6 | 0.61 µg/mL
82 | B7 | 0.16 µg/mL
83 | B8 | 0.063 µg/mL
84 | B9 | 0.98 µg/mL
85 | B10 | 2.1 µg/mL
86 | B11 | 0.027 µg/mL
87 | B12 | 0.22 µg/mL

Target: hMPV B2 F trimer (heated) (human metapneumovirus)
Assay: ELISA on coated recombinant protein, OD 405 nm

Row | Binder | EC50
88 | B2 | 0.24 µg/mL
89 | B3 | 0.65 µg/mL
90 | B4 | 0.36 µg/mL
91 | B5 | 0.15 µg/mL
92 | B6 | 1.8 µg/mL
93 | B7 | 0.31 µg/mL
94 | B8 | 0.063 µg/mL
95 | B9 | 0.29 µg/mL
96 | B10 | 1.7 µg/mL
97 | B11 | 0.02 µg/mL
98 | B12 | 0.33 µg/mL
